From patent US20160083733

Assays:
[1] = target: GST-PDX1 WT (bacterially purified), P52946
[2] = target: GST-PDX1 T126A (bacterially purified), P52946
[3] = target: GST-PDX1 T214A (bacterially purified), P52946
[4] = target: GST-PDX1 T155A (bacterially purified), P52946
[5] = target: GST-PDX1 T231A (bacterially purified), P52946
[6] = target: GST-PDX1 T11A (bacterially purified), P52946
[7] = target: Purified recombinant human PDX-1 (Abcam), P52945
[8] = target: GST-PDX1 T152A (bacterially purified), P52946
Chain of GST-PDX1 T152A (bacterially purified), P52946 (P52946 whole entry T152A, looked up): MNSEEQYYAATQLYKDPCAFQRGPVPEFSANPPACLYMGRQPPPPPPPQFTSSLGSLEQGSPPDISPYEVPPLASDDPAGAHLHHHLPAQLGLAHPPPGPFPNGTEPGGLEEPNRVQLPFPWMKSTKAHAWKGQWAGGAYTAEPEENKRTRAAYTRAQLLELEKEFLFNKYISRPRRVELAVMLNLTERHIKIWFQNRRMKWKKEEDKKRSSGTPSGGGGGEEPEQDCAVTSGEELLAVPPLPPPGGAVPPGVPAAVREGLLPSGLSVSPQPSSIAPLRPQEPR

Chain of GST-PDX1 WT (bacterially purified), P52946 (P52946 whole entry): as the sequence (P52946 whole entry T152A, looked up) above, with A152T counted along it
Chain of GST-PDX1 T11A (bacterially purified), P52946 (P52946 whole entry T11A, looked up): as the sequence (P52946 whole entry T152A, looked up) above, with T11A, A152T counted along it
Chain of GST-PDX1 T155A (bacterially purified), P52946 (P52946 whole entry T155A, looked up): as the sequence (P52946 whole entry T152A, looked up) above, with A152T, T155A counted along it
Chain of Purified recombinant human PDX-1 (Abcam), P52945 (P52945 whole entry): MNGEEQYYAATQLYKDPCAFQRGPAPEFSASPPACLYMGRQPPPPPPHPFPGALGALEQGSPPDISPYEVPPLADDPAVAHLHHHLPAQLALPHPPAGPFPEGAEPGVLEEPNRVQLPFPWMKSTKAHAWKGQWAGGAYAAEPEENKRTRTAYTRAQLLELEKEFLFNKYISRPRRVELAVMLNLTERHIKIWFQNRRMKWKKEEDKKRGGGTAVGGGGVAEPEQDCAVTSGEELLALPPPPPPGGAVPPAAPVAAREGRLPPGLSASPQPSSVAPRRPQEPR
Chain of GST-PDX1 T231A (bacterially purified), P52946 (P52946 whole entry T231A, looked up): as the sequence (P52946 whole entry T152A, looked up) above, with A152T, T231A counted along it
Chain of GST-PDX1 T126A (bacterially purified), P52946 (P52946 whole entry T126A, looked up): as the sequence (P52946 whole entry T152A, looked up) above, with T126A, A152T counted along it
Chain of GST-PDX1 T214A (bacterially purified), P52946 (P52946 whole entry T214A, looked up): as the sequence (P52946 whole entry T152A, looked up) above, with A152T, T214A counted along it

B1: Purified human active MST1 (Upstate Biotechnology) (protein)
chain: METVQLRNPPRRQLKKLDEDSLTKQPEEVFDVLEKLGEGSYGSVYKAIHKETGQIVAIKQVPVESDLQEIIKEISIMQQCDSPHVVKYYGSYFKNTDLWIVMEYCGAGSVSDIIRLRNKTLTEDEIATILQSTLKGLEYLHFMRKIHRDIKAGNILLNTEGHAKLADFGVAGQLTDTMAKRNTVIGTPFWMAPEVIQEIGYNCVADIWSLGITAIEMAEGKPPYADIHPMRAIFMIPTNPPPTFRKPELWSDNFTDFVKQCLVKSPEQRATATQLLQHPFVRSAKGVSILRDLINEAMDVKLKRQESQQREVDQDDEENSEEDEMDSGTMVRAVGDEMGTVRVASTMTDGANTMIEHDDTLPSQLGTMVINAEDEEEEGTMKRRDETMQPAKPSFLEYFEQKEKENQINSFGKSVPGPLKNSSDWKIPQDGDYEFLKSWTVEDLQKRLLALDPMMEQEIEEIRQKYQSKRQPILDAIEAKKRRQQNF
With B1 the “in vitro kinase assay, pan-phospho threonine western blot” value [1] was “With the exception of T11A, PDX1-WT and other mutants were efficiently threonine phosphorylated”, the “in vitro kinase assay, pan-phospho threonine western blot” value [2] was “With the exception of T11A, PDX1-WT and other mutants were efficiently threonine phosphorylated” and the “in vitro kinase assay, pan-phospho threonine western blot” value [3] was “With the exception of T11A, PDX1-WT and other mutants were efficiently threonine phosphorylated”. The “in vitro kinase assay, pan-phospho threonine western blot” value [4] was “With the exception of T11A, PDX1-WT and other mutants were efficiently threonine phosphorylated”, the “in vitro kinase assay, pan-phospho threonine western blot” value [5] was “With the exception of T11A, PDX1-WT and other mutants were efficiently threonine phosphorylated” and the “in vitro kinase assay, pan-phospho threonine western blot” value [6] was “With the exception of T11A, PDX1-WT and other mutants were efficiently threonine phosphorylated”. The “in vitro kinase assay (32P autoradiography; western blot with phospho-specific antibody)” value [7] was “In vitro kinase assays showed that MST1 efficiently phosphorylated PDX1” and the “in vitro kinase assay, pan-phospho threonine western blot” value [8] was “With the exception of T11A, PDX1-WT and other mutants were efficiently threonine phosphorylated”.
